From patent publication US9951373B2, “Oplophorus-derived luciferases, novel coelenterazine substrates, and methods of use” (Promega Corporation, priority 2010, dated 2018)

Experiments:
HEK293 cells = test: Luminescence of OgLuc variants expressed in HEK293 cells; assay type: cell-based, human
Method: (§1) The PCR library in the pF4Ag-based non-fusion background was screened for additional variants with increased luminescence compared to 9B8 opt+K33N+170G (SEQ ID NOs: 68 and 69). Selected variants were then assayed in HEK293 and NIH3T3 cells. For each cell type, 15,000 cells were plated and grown overnight at 37° C. The next day, the cells were transfected as described in Example 25 with 10 ng pGL4.13 (Promega Corp.) as a transfection control and 100 ng of the OgLuc test DNA. The media was removed, and the cells were lysed with 100 μL of lysis buffer as described in Example 25 except the lysis buffer contained 100 mM MES pH 6.0 instead of HEPES, and luminescence measured using a GLOMAX® Luminometer.
(§2) Based on the above data, further combination variants were designed and generated (see Table 10) in the context of the pF4Ag-based non-fusion vector background without the 170G. The variants were analyzed in E. coli, HEK293 and NIH3T3 cells as described above and compared to 9B8 opt+K33N. The variants were also examined for luminescence with native coelenterazine.
(§3) The brightness of the variants expressed in HEK293 and NIH3T3 cells was measured as described previously. The luminescence of the variants was normalized to the luminescence generated by 9B8 opt (Table 27).

NIH3T3 cells [1] = test: Luminescence of OgLuc variants expressed in NIH3T3 cells; assay type: cell-based
Method: as §1, §2, §3

[2] = Km of L27V reversion variants, native coelenterazine; assay type: biochemical
Method: Relative activities <1 indicate the reversion is detrimental compared to the residue at that site in the L27V variant. Relative activities >1 indicate the reversion is favorable for activity compared to the residue at that site in the L27V variant. Some additional data on these mutants indicated the following: 166K, 54F, 54A and L27V were tested for thermal stability. The T1/2 60° C. for 166K, 54F, and 54A were 87, 74, and 33%, respectively, indicating these substitutions cause a reduction in thermal stability. […] This indicates higher substrate affinity for L27V, particularly for the position 54 substitutions.

[3] = Enzyme kinetics of OgLuc variants in E. coli lysates; assay type: biochemical; details: PBI-3939, E. coli lysates
Method: Using methods known in the art, enzyme kinetic assays measuring luminescence were performed with the lysates of E. coli containing IV and the IV variants 15C1, 9B8, 9F6, and 9A3. […] Two fold serial dilutions of PBI-3939 in the assay buffer described previously in Example 26 were assayed with the diluted lysates. […] Variants 9B8 and 9F6 had higher Km values compared to IV while Km values for the other variants were unchanged.
Luminescence was measured on a TECAN® INFINITE® F500 luminometer.
The enzyme kinetics values were determined for the OgLuc variants as described previously, except luminescence was measured using a GLOMAX® luminometer. Three replicates were used for each variant.

[4] = Thermal stability of OgLuc variants at 60° C.; assay type: physicochemical; details: 60° C., assay buffer MES pH 6.0
Method: Aliquots were removed at different time-points and placed on dry ice to freeze the samples. […] Luminescence was measured on a GLOMAX® luminometer (Promega Corp.).
The thermal stability of the variants at 60° C. was examined as described above, except the assay buffer contained 100 mM MES pH 6.0 instead of HEPES.

NIH3T3 cells [5] = test: Luminescence in sandwich background, NIH3T3 cells; assay type: cell-based; details: non-sandwich versus sandwich
Method: The PCR library in the Id-OgLuc-HT7 sandwich background was screened for additional variants with increased luminescence compared to 9B8 opt+K33N in sandwich background. Selected variants were then assayed in HEK293 and NIH3T3 cells. […] 1F7 (F) (SEQ ID NOs: 84 and 85) and 15H1 (F) (SEQ ID NOs: 86 and 87) had at least 1.3 fold-increase in luminescence in E. coli. 1F7 (F) was brighter than 9B8 opt+K33N in the sandwich background in HEK293 and NIH3T3 cells.
The variants 9B8 opt+K33N+T39T+K43R+Y68D (“V2”; SEQ ID NOs: 92 and 93), 9B8 opt+K33N+L27V+K43R+Y68D (SEQ ID NOs: 339 and 340), 9B8 opt+K33N+L27V+T39T+K43R+S66N (SEQ ID NOs: 341 and 342), and 9B8 opt+K33N+L27V+T39T+K43R+Y68D (“L27V”; SEQ ID NOs: 88 and 89) were subcloned into the Id-OgLuc-HT7 sandwich background as described above and assayed in HEK293 and NIH3T3 cells as described above. The luminescence generated by the sandwiched variants were compared to the luminescence generated by the […] sandwich (SEQ ID NOs: 59 and 60) (Table 38). The L27V sandwich (SEQ ID NOs: 90 and 91) and V2 sandwich (SEQ ID NOs: 94 and 95) had at least 1.3× fold-increase in luminescence in HEK293 and NIH3T3 cells.
The sandwich and non-sandwich versions of the variants V2, 9B8 opt+K33N+L27V+K43R+Y68D, 9B8 opt+K33N+L27V+T39T+K43R+S66N, and L27V were assayed in HEK293 and NIH3T3 cells as described in Example 37. The luminescence generated by the non-sandwiched variants was compared to the luminescence generated by the sandwiched variants (Table 39).

[6] = Exposure of OgLuc variant to urea; assay type: physicochemical; details: 3 M urea, 30 min at 25° C.
Method: Since Firefly luciferase is known to be relatively unstable, it is much more sensitive to urea exposure. To determine whether this was also the case with the OgLuc variants, the sensitivity of the OgLuc to urea was determined 5 μl of 45.3 μM L27V enzyme was mixed with 100 μL of a urea solution (100 mM MOPS, pH 7.2, 100 mM NaCl, 1 mM CDTA, 5% glycerol and various concentrations of urea) and incubated for 30 min at room temperature. 5 μL of the urea+L27V enzyme solution was diluted 10,000-fold into DMEM without phenol red+0.1% PRIONEX®, 50 μL was mixed with 50 μL of assay reagent containing 100 μM PBI-3939 (previously described) and the luminescence was read at 10 min. (FIG. 88).
A 0.31 mg/mL stock of purified L27V variant was diluted 100,000-fold into buffer (PBS+1 mM DTT+0.005% IGEPAL) and incubated with 3 M urea for 30 min at 25° C. and then mixed 1:1 (50 μL+50 μL) with an assay reagent containing 100 μM PBI-3939 (previously described). The reactions were read on a TECAN® INFINITE® F500 luminometer as described previously (for 100 min; 1 min read intervals) (FIG. 89).

[7] = relative specificity for PBI-3939 compared to native coelenterazine

B1: L27V: 9B8 opt+K33N variant with L27V, T39T, K43R, Y68D (SEQ ID NO: 89) (protein)
chain: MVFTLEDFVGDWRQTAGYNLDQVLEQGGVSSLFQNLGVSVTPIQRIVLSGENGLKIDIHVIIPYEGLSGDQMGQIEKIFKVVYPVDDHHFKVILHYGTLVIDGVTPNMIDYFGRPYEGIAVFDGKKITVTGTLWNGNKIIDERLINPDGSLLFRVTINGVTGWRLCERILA
For B1, the “luminescence normalized to 9B8 opt, HEK293” value (HEK293 cells; PBI-3939) was 1.6, the “Fold over 9B8 opt + K33N, HEK293” value (HEK293 cells; luminescence, PBI-3939) was 0.8 and the “Fold over Native Coelenterazine, HEK293” value (HEK293 cells; [7]) was 97. For the same molecule, the “luminescence normalized to 9B8 opt, NIH3T3” value (NIH3T3 cells [1]; PBI-3939) was 1.6, the “Fold over 9B8 opt + K33N, NIH3T3” value (NIH3T3 cells [1]; luminescence, PBI-3939) was 0.7 and the “Fold over Native Coelenterazine, NIH3T3” value (NIH3T3 cells [1]; [7]) was 85. The Km [2] was 16 µM, the Km [3] was 13.9 µM and the Vmax [3] was 190,000,000 RLU/0.5 sec. The 1/2 life hours [4] was 21.7 h, the “Fold-decrease in luminescence in the presence of sandwich background, NIH 3T3 cells” value (NIH3T3 cells [5]) was 18 and the reduction of activity [6] was “approximately 50%”.
